The record followed here is patent US9605073B2, “Modulation of activity of neurotrophins” (H. Lundbeck, priority 2002, dated 2017).

Where two headings read alike, the source gives them in different places.

Assay [1] concerns the target T1, proNGF binding to Sortilin (Homo sapiens, UniProt Q99523).
T1 construct: to 51 fmol/mm^2 purified Sortilin extracellular domain (lower panel); made in house; host or cells: Sortilin: stably transfected CHO cells; proNGF: E. coli
T1 sequence (Q99523 78-755 limits assumed): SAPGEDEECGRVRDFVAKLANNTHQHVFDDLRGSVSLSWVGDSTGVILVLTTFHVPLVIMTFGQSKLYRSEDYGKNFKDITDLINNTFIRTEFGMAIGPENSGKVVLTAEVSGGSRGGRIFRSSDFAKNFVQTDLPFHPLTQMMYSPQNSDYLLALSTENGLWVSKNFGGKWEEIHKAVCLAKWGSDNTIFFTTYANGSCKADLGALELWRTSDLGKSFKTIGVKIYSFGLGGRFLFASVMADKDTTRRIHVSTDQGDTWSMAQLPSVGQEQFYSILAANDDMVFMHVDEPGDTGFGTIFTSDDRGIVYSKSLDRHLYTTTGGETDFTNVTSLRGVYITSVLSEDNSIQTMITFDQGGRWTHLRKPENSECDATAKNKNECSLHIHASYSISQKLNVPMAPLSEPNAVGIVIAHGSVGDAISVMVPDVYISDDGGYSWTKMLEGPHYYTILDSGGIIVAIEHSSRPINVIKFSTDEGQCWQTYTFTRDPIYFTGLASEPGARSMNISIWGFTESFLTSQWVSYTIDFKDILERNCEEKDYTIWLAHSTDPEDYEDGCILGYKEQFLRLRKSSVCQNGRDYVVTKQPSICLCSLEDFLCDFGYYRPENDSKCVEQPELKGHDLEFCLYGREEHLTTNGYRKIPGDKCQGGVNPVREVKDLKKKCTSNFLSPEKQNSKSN
The experiment in a line: Inhibition of proNGF binding to immobilized Sortilin (BIAcore). The settings on record: prebound then coinjected, 51 fmol/mm^2 Sortilin.
Description: FIG. 6: Inhibition of proNGF binding to immobilized Sortilin by RAP (receptor-associated protein), the propeptide of proNGF, and the Sortilin propeptide. The inhibitors were prebound to Sortilin followed by coinjection with 200 nM proNGF. […] Maximal proNGF binding is measured without preincubation with the respective inhibitors.

The target in assay [2] is T2, Sortilin extracellular domain (Homo sapiens, UniProt Q99523).
T2 construct: purified Sortilin extracellular domain (lower panel); made in house; host or cells: CHO cells (stably transfected)
T2 sequence (Q99523 78-755 limits assumed): T1 sequence (Q99523 78-755 limits assumed)
Description: Surface plasmon resonance (BIAcore) binding to immobilized purified Sortilin extracellular domain. Here is the method: (§1) FIG. 2: Characterization of NGF binding to p75, TrkA, and Sortilin as measured by surface plasmon resonance analysis (BIAcore). Binding of 50-500 nM NGF was measured to 91.5 fmol/mm^2 immobilized p75-IgG-Fc chimeric protein (upper panel), to 66 fmol/mm^2 immobilized TrkA-IgG-Fc (middle panel), and to 51 fmol/mm^2 purified Sortilin extracellular domain (lower panel).
(§2) Mature murine NGF was from Austral Biologicals (San Ramon, Calif.), recombinant human p75 neurotrophin receptor/Fc and human TrkA/Fc chimeras were from R&D systems (Oxon, UK). Human Sortilin was produced in stably transfected CHO-cells and purified as described elsewhere (Munck Petersen et al, EMBO J. (1999) 18:595-604).
(§3) FIG. 3: Characterization of proNGF binding to p75, TrkA, and Sortilin as measured by surface plasmon resonance analysis (BIAcore). Binding of 25-500 nM proNGF was measured to 91.5 fmol/mm^2 immobilized p75-IgG-Fc chimeric protein (upper panel), to 66 fmol/mm^2 immobilized TrkA-IgG-Fc (middle panel), and to 51 fmol/mm^2 purified Sortilin extracellular domain (lower panel).
(§4) FIG. 4: Characterization of binding of the proNGF propeptide to p75, TrkA, and Sortilin as measured by surface plasmon resonance analysis (BIAcore). Binding of 25-500 nM propeptide was measured to 91.5 fmol/mm^2 immobilized p75-IgG-Fc chimeric protein (upper panel), to 66 fmol/mm^2 immobilized TrkA-IgG-Fc (middle panel), and to 51 fmol/mm^2 purified Sortilin extracellular domain (lower panel).
FIG. 7: Characterization of proBDNF and BDNF binding to purified Sortilin as measured by surface plasmon resonance (BIAcore). Rat proBDNF was produced in 293 cells as described in Lee, R., Kermani, P., Teng, K. K. & Hempstead, B. L. Regulation of cell survival by secreted proneurotrophins. Science 294, 1945-1948 (2001). and purified from the conditioned medium. Mature recombinant human BDNF was from Promega (#G1491) and the pro-domain of human BDNF fused to GST (glutathione S-transferase) was produced in E. coli and purified by glutathione-sepharose affinity chromatography. Binding of 5-500 nM proBDNF (upper panel), pro-domain of proBDNF (a GST-fusion protein, middle panel) or BDNF (lower panel) was measured to 94 fmol/mm2 immobilized purified Sortilin extracellular domain. The experiment was carried out essentially as described for FIGS. 2-4.
(§5) All the data provided in FIG. 2-7 are obtained by surface plasmon resonance measurements (BIAcore analysis)

Assay [3] concerns the target T3, p75 neurotrophin receptor/Fc (Homo sapiens, UniProt P08138).
T3 construct: purchased R&D systems (Oxon, UK)
The experiment in a line: Surface plasmon resonance (BIAcore) binding to immobilized p75-IgG-Fc chimeric protein. The settings on record: 91.5 fmol/mm^2 immobilized p75-IgG-Fc; for Kd: BIAcore. On the procedure:
as §1, §2, §3, §4, §5

For a further assay, the target named is TrkA/Fc. The experiment in a line: Surface plasmon resonance (BIAcore) binding to immobilized TrkA-IgG-Fc. Details: species or system human. The following applies: 66 fmol/mm^2 immobilized TrkA-IgG-Fc; for Kd: BIAcore. On the procedure:
as §1, §2, §3, §4, §5

[4] abbreviates: 5-500 nM ligand, 94 fmol/mm2 immobilized purified Sortilin extracellular domain, read-out: Kd for ligand binding to Sortilin.
Setting [5] is: 51 fmol/mm^2 purified Sortilin extracellular domain, BIAcore, read-out: Kd for binding to Sortilin.

T3 sequence (P08138 with tags, fused parts or gaps limits assumed): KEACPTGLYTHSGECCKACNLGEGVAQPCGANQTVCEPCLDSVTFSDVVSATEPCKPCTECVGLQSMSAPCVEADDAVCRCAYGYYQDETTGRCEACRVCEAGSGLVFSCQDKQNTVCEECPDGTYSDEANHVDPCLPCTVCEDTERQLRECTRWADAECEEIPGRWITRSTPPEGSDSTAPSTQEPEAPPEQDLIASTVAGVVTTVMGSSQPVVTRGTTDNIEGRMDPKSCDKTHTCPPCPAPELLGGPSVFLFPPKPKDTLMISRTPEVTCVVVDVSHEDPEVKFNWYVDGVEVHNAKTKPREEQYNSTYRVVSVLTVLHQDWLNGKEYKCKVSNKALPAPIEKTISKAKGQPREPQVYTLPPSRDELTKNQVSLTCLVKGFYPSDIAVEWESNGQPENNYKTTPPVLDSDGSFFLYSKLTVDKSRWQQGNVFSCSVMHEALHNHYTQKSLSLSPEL

Turning to “Sortilin propeptide: Propeptide of Sortilin; SEQ ID NO: 1 amino acid residue 34-77, binds the processed receptor (QDRLDAPPPPAAPLPRWSGPIGVSWGLRAAAAGGAFPRGGRWRR; listed as Homo sapiens)”, the “inhibition of binding of 200 nM proNGF to immobilized Sortilin” value (“inhibition of binding of 200 nM proNGF” for short) in assay [1] (inhibitor 5 μM) is on record as around 65%.
Consider “mature BDNF: Mature recombinant human BDNF from Promega (#G1491)”, for which the Kd in assay [2] (setting [4]) is around 0.04 µM; in assay [2] (other preparations of mature BDNF, read-out: Kd for ligand binding to Sortilin), 0.01 µM.
For the molecule “proNGF: Human recombinant proNGF produced and purified in E. coli”, the results for the Kd (in assay [2] (setting [5]); in assay [3]; on TrkA/Fc) were around 0.005 µM, around 0.012 µM and around 0.015 µM, respectively.

B1: proBDNF: Rat proBDNF produced in 293 cells and purified from the conditioned medium (protein)
chain: APMKEANVHGQGNLAYPAVRTHGTLESVNGPRAGSRGLTTTSLADTFEHVIEELLDEDQKVRPNEENHKDADLYTSRVMLSSQVPLEPPLLFLLEEYKNYLDAANMSMRVRRHSDPARRGELSVCDSISEWVTAADKKTAVDMSGGTVTVLEKVPVSKGQLKQYFYETKCNPMGYTKEGCRGIDKRHWNSQCRTTQSYVRALTMDSKKRIGWRFIRIDTSCVCTLTIKRGR
Turning to B1, the Kd in assay [2] (setting [4]) is around 0.003 µM.

B2: NGF: Mature murine NGF from Austral Biologicals (protein)
chain: SSTHPVFHMGEFSVCDSVSVWVGDKTTATDIKGKEVTVLAEVNINNSVFRQYFFETKCRASNPVESGCRGIDSKHWNSYCTTTHTFVKALTTDEKQAAWRFIRIDTACVCVLSRKATRRG
Consider B2, for which the dissociation constant Kd in assay [2] (setting [5]) is around 0.087 µM; in assay [3] it was around 0.001 µM; on TrkA/Fc it was around 0.002 µM.

B3: proNGF propeptide: Human NGF-propeptide expressed in E. Coli; SEQ ID NO: 6 amino acid residue 19-121 (protein, listed as Homo sapiens)
chain: EPHSESNVPAGHTIPQVHWTKLQHSLDTALRRARSAPAAAIAARVAGQTRNITVDPRLFKKRRLRSPRVLFSTQPPREAADTQDLDFEVGGAAPFNRTHRSKR
As to B3, the Kd in assay [2] (setting [5]) is around 0.087 µM. In addition, the “binding to p75” value in assay [3] (25-500 nM propeptide) is “no detectable binding”. In addition, the “inhibition of binding of 200 nM proNGF” value in assay [1] (inhibitor 5 μM) was around 85%. Besides, the “binding to TrkA” value with TrkA/Fc (25-500 nM propeptide) is “no detectable binding”.

B4: RAP: Receptor-associated protein, cellular protein of about 300 amino acids, SEQ ID NO: 12 (protein, listed as Homo sapiens)
chain: MAPRRVRSFLRGLPALLLLLLFLGPWPAASHGGKYSREKNQPKPSPKRESGEEFRMEKLNQLWEKAQRLHLPPVRLAELHADLKIQERDELAWKKLKLDGLDEDGEKEARLIRNLNVILAKYGLDGKKDARQVTSNSLSGTQEDGLDDPRLEKLWHKAKTSGKFSGEELDKLWREFLHHKEKVHEYNVLLETLSRTEEIHENVISPSDLSDIKGSVLHSRHTELKEKLRSINQGLDRLRRVSHQGYSTEAEFEEPRVIDLWDLAQSANLTDKELEAFREELKHFEAKIEKHNHYQKQLEIAHEKLRHAESVGDGERVSRSREKHALLEGRTKELGYTVKKHLQDLSGRISRARHNEL
For B4, the “inhibition of binding of 200 nM proNGF” value in assay [1] (inhibitor 10 μM) is recorded as around 65%.

B5: GST-pro-domain of proBDNF: Pro-domain of human BDNF fused to GST, produced in E. coli (protein)
chain: APMKEANIRGQGGLAYPGVRTHGTLESVNGPKAGSGLTSLADTFEHVIEELLDEDQKVRPNEENNKDADLYTSRVMLSSQVPLEPPLLFLLEEYKNYLDAANMSMRVRR
modifications: left off: a dimerising Fc or GST
notes: Pro-domain of human BDNF fused to GST, produced in E. coli
Take B5: the dissociation constant (Kd) in assay [2] (setting [4]) is around 0.058 µM.
